Measured values taken from patent US12048734B2, “Bioactive peptides and methods of use thereof” (OP-T LLC, priority 2020, dated 2024).

Tested on: CD4loCD40+ T cells (Th40 cells)
Assay: Cytokine production of CD40- or CD3-stimulated Th40 cells with galectin-9
Assay type: cell-based, NOD mice
Conditions: 3 days; indicated concentrations of galectin-9
Procedure: CD4loCD40+ T cells (Th40 cells) were sorted from 7-20 weeks old female NOD spleens. Cells were either isotype treated, CD40- or CD3-stimulated in the absence/presence of indicated concentrations of galectin-9 (gal-9; mg/ml) for 3 days then cytokines were measured. Bar graphs depict means with SEM. Asterisks denote significant differences determined by one-way Anova; *-P between 0.01 and 0.05; **-P, 0.01; ***-P, 0.001. Measurements were done on four individual mice of different ages.

B1: galectin-9: galectin-9 protein added to Th40 cell cultures (protein, UniProt O00182 1-355, looked up)
Galectin-9: MAFSGSQAPYLSPAVPFSGTIQGGLQDGLQITVNGTVLSSSGTRFAVNFQTGFSGNDIAFHFNPRFEDGGYVVCNTRQNGSWGPEERKTHMPFQKGMPFDLCFLVQSSDFKVMVNGILFVQYFHRVPFHRVDTISVNGSVQLSYISFQNPRTVPVQPAFSTVPFSQPVCFPPRPRGRRQKPPGVWPANPAPITQTVIHTVQSAPGQMFSTPAIPPMMYPHPAYPMPFITTILGGLYPSKSILLSGTVLPSAQRFHINLCSGNHIAFHLNPRFDENAVVRNTQIDNSWGSEERSLPRKMPFVRGQSFSVWILCEAHCLKVAVDGQHLFEYYHRLRNLPTINRLEVGGDIQLTHVQT
  CD40 and CD3 induced cytokine production level: alters the production level
